One assay concerns the target T1, OSBP (Homo sapiens, UniProt P22059).
T1 construct: full-length, Flag-tagged, tag kept; 807 residues (deletion series ends at 807)
The experiment in a line: liposome sterol transfer, DHE to dansyl-PE FRET. It is filed as biochemical. The following applies: lipid transfer substrate (not catalysis); with RELCH, Rab11a(Q70A)-His/GTP and myristoylated Arf1(Q71L)-Flag; RE-like donor and Golgi-like PI4P acceptor liposomes; 200 nM OSBP; pH 7.2; room temperatur.

The target of assay [1] is T2, GST-RELCH_(497-779) (Rab-binding domain) (mouse, UniProt Q148V7 497-779).
T2 construct: also called GST-RELCH (RBD); source: E. coli Rosetta II (pFAT2), purified (Ni-NTA agarose); not shown: GST, N-terminal, kept
T2 sequence (looked up): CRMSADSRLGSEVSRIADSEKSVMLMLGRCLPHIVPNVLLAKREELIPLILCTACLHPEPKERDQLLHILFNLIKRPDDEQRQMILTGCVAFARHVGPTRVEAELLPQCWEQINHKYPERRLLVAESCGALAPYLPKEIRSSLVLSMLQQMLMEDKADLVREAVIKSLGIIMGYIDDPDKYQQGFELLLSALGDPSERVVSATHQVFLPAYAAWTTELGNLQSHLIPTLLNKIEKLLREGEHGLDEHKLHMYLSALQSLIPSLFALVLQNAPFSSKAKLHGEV
The experiment in a line: pull-down; 10 µg GST-RELCH (RBD) on 20 µl Glutathione Sepharose 4B, 10 µg Rab11a (Q70A)-His loaded with GTP in 500 µl; immunoblot with Rab11 and GST antibodies. The settings on record: both partners purified. In general terms: A western blot detects proteins with antibodies after separation by electrophoresis.

A further assay concerns the target T3, untagged RELCH (mouse, UniProt Q148V7 1-1216).
T3 construct: RELCH/KIAA1468, mouse, cDNA NM_173187.3, with an N-terminal PreScission protease recognition site; no limits are stated; Residues of the PreScission site may be left at the N-terminus after cleavage; source: E. coli XL-1 blue (pQE32), purified (Ni-NTA agarose), His tag removed with PreScission protease; not shown: His, N-terminal, cleaved
T3 sequence (looked up): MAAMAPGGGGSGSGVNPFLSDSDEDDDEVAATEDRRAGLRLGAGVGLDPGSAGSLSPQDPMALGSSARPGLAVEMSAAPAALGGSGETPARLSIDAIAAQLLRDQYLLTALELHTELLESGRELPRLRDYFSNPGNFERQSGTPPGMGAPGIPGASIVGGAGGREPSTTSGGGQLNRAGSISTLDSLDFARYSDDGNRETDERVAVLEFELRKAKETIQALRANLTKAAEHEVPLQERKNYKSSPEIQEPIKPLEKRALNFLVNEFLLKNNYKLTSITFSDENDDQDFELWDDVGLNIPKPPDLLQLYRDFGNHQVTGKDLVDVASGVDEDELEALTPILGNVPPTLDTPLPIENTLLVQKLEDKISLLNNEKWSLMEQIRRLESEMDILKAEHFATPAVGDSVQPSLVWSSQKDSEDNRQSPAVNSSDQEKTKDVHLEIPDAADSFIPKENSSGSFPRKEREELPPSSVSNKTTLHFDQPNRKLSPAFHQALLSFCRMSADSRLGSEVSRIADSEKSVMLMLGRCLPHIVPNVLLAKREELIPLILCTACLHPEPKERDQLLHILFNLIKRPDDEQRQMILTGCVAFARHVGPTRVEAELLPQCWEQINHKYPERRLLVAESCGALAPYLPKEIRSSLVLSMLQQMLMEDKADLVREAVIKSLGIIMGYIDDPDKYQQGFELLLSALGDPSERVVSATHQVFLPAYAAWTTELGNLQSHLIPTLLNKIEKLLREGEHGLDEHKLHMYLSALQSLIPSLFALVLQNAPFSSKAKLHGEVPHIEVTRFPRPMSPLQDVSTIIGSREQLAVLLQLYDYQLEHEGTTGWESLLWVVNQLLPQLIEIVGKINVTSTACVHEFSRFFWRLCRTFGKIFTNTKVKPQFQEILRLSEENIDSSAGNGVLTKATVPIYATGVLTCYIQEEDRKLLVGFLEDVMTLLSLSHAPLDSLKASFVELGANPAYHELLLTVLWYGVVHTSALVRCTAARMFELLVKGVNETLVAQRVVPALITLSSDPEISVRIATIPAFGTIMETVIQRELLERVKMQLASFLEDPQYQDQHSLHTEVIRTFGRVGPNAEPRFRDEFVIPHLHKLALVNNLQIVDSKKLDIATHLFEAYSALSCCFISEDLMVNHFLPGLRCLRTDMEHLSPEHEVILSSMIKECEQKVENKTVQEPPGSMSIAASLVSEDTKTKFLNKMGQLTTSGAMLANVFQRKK
The experiment in a line: silica bead-based liposome binding assay; silica beads coated with RE-like liposomes (DOGS-NTA(Ni), Rho-PE) prebound with 5 µM Rab11a (Q70A)-His, then 200 nM untagged RELCH, 30 min at 4°C in HKM buffer with 1 mM GTP and BSA; stained with Rab11 or RELCH antibodies. The settings on record: both partners purified.

The target of assay [2] is T4, His-RELCH (mouse, UniProt Q148V7 1-1216).
T4 construct: RELCH/KIAA1468, mouse, cDNA NM_173187.3 amplified from a mouse embryo cDNA library; no limits are stated for this construct (deletion constructs are named by their ranges); also called purified recombinant RELCH; His-RELCH protein; source: E. coli XL-1 blue (pQE32tev), purified (Ni-NTA agarose); not shown: His, N-terminal, kept
T4 sequence (looked up): T3 sequence (looked up)
As to the kind of experiment: pull-down; 10 µg GST-Rab11a Q70A (GTP) on 20 µl Glutathione Sepharose 4B, 20 µg His-RELCH in 500 µl; immunoblot with RELCH and GST antibodies. The settings on record: both partners purified.

Assay [3] addresses T4, His-RELCH. As to the kind of experiment: pull-down; 0.5 µg His-RELCH on Ni-NTA beads, 0.5 µg Flag-OSBP in 20 mM Hepes-NaOH pH 7.5, 100 mM NaCl, 5 mM MgCl2 with ethanol, cholesterol or 25-OH, 1 h at 4°C; immunoblot with His and Flag antibodies. The settings on record: both partners purified.

Consider four molecules from article PMC5940305, “The Rab11-binding protein RELCH/KIAA1468 controls intracellular cholesterol distribution” (The Journal of Cell Biology, 2018).

T1 sequence (P84077 2-181 Q71L partner, one chain of several): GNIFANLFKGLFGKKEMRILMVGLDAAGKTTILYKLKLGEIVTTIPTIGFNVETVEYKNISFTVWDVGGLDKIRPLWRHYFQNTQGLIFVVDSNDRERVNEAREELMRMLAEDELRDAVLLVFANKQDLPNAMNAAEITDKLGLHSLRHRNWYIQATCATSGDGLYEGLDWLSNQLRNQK

In the case of `CC(C)[C@@H](C)/C=C/[C@@H](C)[C@H]1CC[C@H]2C3=CC=C4C[C@@H](O)CC[C@]4(C)C3=CC[C@]12C` [DHE, dehydroergosterol], at OSBP, the “liposome sterol transfer, DHE to dansyl-PE FRET” value is “the DHE transfer occurred in a RELCH dose-dependent manner”.

B1: Rab11a (Q70A)-His, loaded with GTP (natural protein, mouse, UniProt P62492 1-216, looked up)
chain: MGTRDDEYDYLFKVVLIGDSGVGKSNLLSRFTRNEFNLESKSTIGVEFATRSIQVDGKTIKAQIWDTAGAERYRAITSAYYRGAVGALLVYDIAKHLTYENVERWLKELRDHADSNIVIMLVGNKSDLRHLRAVPTDEARAFAEKNGLSFIETSALDSTNVEAAFQTILTEIYRIVSQKQMSDRRENDMSPSNNVVPIHVPPTTENKPKVQCCQNI
notes: Rab11a, mouse, GTP-locked mutant Q70A, cloned without a stop codon into pET28c; Loaded with GTP in the assays; on liposomes it is held through its His tag by DOGS-NTA(Ni); also called His6×-tagged Rab11a-GTP; Rab11a-GTP; source: E. coli Rosetta II (pET28c), purified (cOmplete His-tag purification resin, EDTA wash, nucleotide-free); not shown: His6, C-terminal, kept
Take B1: the binding result (in assay [1]; in the assay with untagged RELCH) was “binds” in each case.

B2: GST-Rab11a Q70A, loaded with GTP (natural protein, UniProt P62491 1-216, looked up)
chain: B1 chain
notes: Rab11a; GTP-locked mutant Q70A; the pFAT2 His-GST-Rab constructs were made as in Haas et al., 2005 and Yoshimura et al., 2007; also called GTP-loaded Rab11a; GST-Rab11-GTP; source: E. coli Rosetta II (pFAT2), purified (Ni-NTA agarose); not shown: GST, N-terminal, kept
For B2, the binding result with His-RELCH [2] was “binds”.

B3: Flag-OSBP, full length (natural protein, human, UniProt P22059 1-807, looked up)
chain: MAATELRGVVGPGPAAIAALGGGGAGPPVVGGGGGRGDAGPGSGAASGTVVAAAAGGPGPGAGGVAAAGPAPAPPTGGSGGSGAGGSGSAREGWLFKWTNYIKGYQRRWFVLSNGLLSYYRSKAEMRHTCRGTINLATANITVEDSCNFIISNGGAQTYHLKASSEVERQRWVTALELAKAKAVKMLAESDESGDEESVSQTDKTELQNTLRTLSSKVEDLSTCNDLIAKHGTALQRSLSELESLKLPAESNEKIKQVNERATLFRITSNAMINACRDFLMLAQTHSKKWQKSLQYERDQRIRLEETLEQLAKQHNHLERAFRGATVLPANTPGNVGSGKDQCCSGKGDMSDEDDENEFFDAPEIITMPENLGHKRTGSNISGASSDISLDEQYKHQLEETKKEKRTRIPYKPNYSLNLWSIMKNCIGKELSKIPMPVNFNEPLSMLQRLTEDLEYHELLDRAAKCENSLEQLCYVAAFTVSSYSTTVFRTSKPFNPLLGETFELDRLEENGYRSLCEQVSHHPPAAAHHAESKNGWTLRQEIKITSKFRGKYLSIMPLGTIHCIFHATGHHYTWKKVTTTVHNIIVGKLWIDQSGEIDIVNHKTGDKCNLKFVPYSYFSRDVARKVTGEVTDPSGKVHFALLGTWDEKMECFKVQPVIGENGGDARQRGHEAEESRVMLWKRNPLPKNAENMYYFSELALTLNAWESGTAPTDSRLRPDQRLMENGRWDEANAEKQRLEEKQRLSRKKREAEAMKATEDGTPYDPYKALWFERKKDPVTKELTHIYRGEYWECKEKQDWSSCPDIF
notes: OSBP, human, amplified from pOTB7-OSBP, in pcDNA5/FRT/TO-Flag; also called Flag-tagged OSBP; source: HEK293FT, transfected, in lysate; Flp-In–293, transfected, in lysate; not shown: Flag, N-terminal, kept
As for B3, the binding result in the assay with His-RELCH [3] is “binds”.
